Reference: article PMC11074299

Biological target: Casp-8^tDED_F122G/L123G mutant (human) (UniProt Q14790)
Assay: crystal structure; FA^FuL_H9G-C8^FGLG-CF^H7G complex; proteins individually expressed in E. coli, complex co-purified by Ni-NTA and SEC (80 mM NaCl, 20 mM Tris pH 8.0); hanging drop, 20 °C; MR-SAD; 3.1 Å; one 1:5:4 complex per asymmetric unit; FADD DD not visible

Casp-8^tDED_F122G/L123G mutant (from UniProt Q14790 1-185) (domain or fragment)
stoichiometry N: 5
